The target of this assay is HipB of the E. coli O127:H6 HipBST toxin-antitoxin system (E. coli O127:H6) (UniProt P23873). The assay is described as follows: crystal structure.

As a reminder, the stoichiometry N is a count of units in the complex or per binding partner. The substance “HipB of the E. coli O127:H6 HipBST toxin-antitoxin system (from UniProt P23873 1-88) (natural protein)” had a stoichiometry N of 2.

(Values after article PMC10627512.)
